The DeepSol protein solubility set

Test: soluble on expression in E. coli; label from the status in PepcDB or PDB records

Soluble on expression in E. coli, not soluble:
MGSDKIHHHHHHMRWFSLATAFLWGYYGFDNFGDELMFKACVNLLRELGFGTIYTPLPKGKKSMGVTSVDRYSIKLLSLLKKSQVSIAGGGGLFQDVTSLRSLLYYYSISKASLLMDKPLIFFGNSVGPLRRRLSKKLVWDVFKDKRTVFIARDPASYRYVKMVGGNAVLGTDPAIIHLMESDMEKKTEKKAVFFLKSPMDVSYILKSLRDQGINDFVISTAFPGDHSYLPPLRNGENLLEEIVSSSIVITERFHPALVAAYFEIPFIIVDCQKARRFFARYTKEDHFFSKRDPLEISLKVPVVLKKELKLKEKMKNDAIEMKEMLKGVLKGW
MSLVFVACGLNHKTAPIHVREKVALQPAMQDSLLSSLLDLPEVNEAAILSTCNRTEIYCDTNTPEVLGNWLAHEHQLSEELLSQFLYIHQGKEGIKHTLRVASGLDSMMIGEPQILGQMKQAYQHACRLGTVKTQLRPVFEYIFRASKRIRTRSGIGANPVSIAYAAVQLIGQLFKNYHSLSVFLIGSGETASLVAKYLHQHGVHRFLIASRTLENAQKLAETFGGKTLSIGDIPQYLPLADVVISATACPLPFINKSLVEHALEQRNHAPMFLLDLAVPRDIEGNVNELEQVHLYNVDDLQSMIEKGMDERRNAALQAEQLIESELDNYIRWHRSLRAKDVICDYRNQMHTLAQQELQRALKKISAGQNQQDVLNEFSMRLVNKLTHNPTIGLRQIAWDNREDLLDLARYLFDTTANQSLYEEISEGHHHHHH
MGSDKIHHHHHHVRIAILSQGPQLYSTKRLVEAALARGHEVKVINPLKCYMNINMTKPSIHMAGKDLGHFDAVIPRIGASVTFYGSAVLRQFEMMGVYAVNGSIGIARSRDKLRSMQLLSRQGIGLPITGFANKPSDIPDLIDMVGGAPLVVKLLEGTQGIGVVLAETRKAAESVLEAFMGLKANIMVQEYIAEAQGADIRCFVLGDKVIAAMKRQAKPGEFRSNLHRGGSATLVKLTPEERSVALRAAKTMGLNIAGVDLLRSNHGPVVMEVNSSPGLEGIEKATQKDVADAIICFMEKNANKSIKSAQ

Soluble on expression in E. coli, soluble:
MSLGNKRVLITGATGFIGGYLVDEALRRQYEVWAAVRPHSDRSRLTDSRIRFVEIDYRDPSDIARLADKIAPEGESAWHLVIHNAGITKARDTSLFREINAEQTKRFLIGLQGAKHCPERFVLMSSMGSYGAPPDDCQPLSSSSVPKPTTAYGESKLLAEQYVQTFVTIPYTIIQPTGVYGPHDQDYLMAIRSVDKGFDFSTGNTPQTLTFIYAEDLASAVFIAAEHPDAAGQKYIVSDGKEYTDIEFGRMIQHLLDRKNVCHLRIPLPLVKATCYIGQKWADISGTLTPLNLDKYAIIAQRNWRCDSSPIRAIGFSPRYNLEQGLAETIRWARTTGQIREGHHHHHH
MGSDKIHHHHHHMKELIRKLTEAFGPSGREEEVRSIILEELEGHIDGHRIDGLGNLIVWKGSGEKKVILDAHIDEIGVVVTNVDDKGFLTIEPVGGVSPYMLLGKRIRFENGTIGVVGMEGETTEERQENVRKLSFDKLFIDIGANSREEAQKMCPIGSFGVYDSGFVEVSGKYVSKAMDDRIGCAVIVEVFKRIKPAVTLYGVFSVQEEVGLVGASVAGYGVPADEAIAIDVTDSADTPKAIKRHAMRLSGGPALKVKDRASISSKRILENLIEIAEKFDIKYQMEVLTFGGTNAMGYQRTREGIPSATVSIPTRYVHSPSEMIAPDDVEATVDLLIRYLGA
STRFLEKRHKKKKATNKERILSYKPIHAIEQENSFRSSRCSNQTVEVSAVEDSRSALVGFFESNEPSESVTLKGKRERQLLASKTLISQLKEENCRLKERLNEVKDQLELKEKIALVQQENNDLEAEVLEWKAKFYESESEKERILASRSRPKDGYEIVQESLAQQPGTTSFYDYKFRQLVHKLTRMNAIHSKHNDKEYHKCDIVNESKDRSITFELFIDEEQEEIEYVPVQLNGVSQKLPSYLQDNISFDVQNAPIFFTKIMHSLFSK
